According to US6987089:

Target: T1, His-CIA recombinant protein (His6-tagged mouse CIA)
T1 chain: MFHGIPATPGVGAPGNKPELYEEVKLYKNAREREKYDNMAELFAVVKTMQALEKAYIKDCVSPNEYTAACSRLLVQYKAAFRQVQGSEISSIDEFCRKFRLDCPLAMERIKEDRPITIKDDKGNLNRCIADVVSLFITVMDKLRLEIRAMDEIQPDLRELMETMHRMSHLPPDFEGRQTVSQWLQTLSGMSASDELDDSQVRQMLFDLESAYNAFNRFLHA

B1: ASK1-Flag (expressed from pcDNA3-ASK1-Flag in 293 cells, immunoprecipitated with anti-Flag) (protein)
chain: MSTEADEGITFSVPPFAPSGFCTIPEGGICRRGGAAAVGEGEEHQLPPPPPGSFWNVESAAAPGIGCPAATSSSSATRGRGSSVGGGSRRTTVAYVINEASQGQLVVAESEALQSLREACETVGATLETLHFGKLDFGETTVLDRFYNADIAVVEMSDAFRQPSLFYHLGVRESFSMANNIILYCDTNSDSLQSLKEIICQKNTMCTGNYTFVPYMITPHNKVYCCDSSFMKGLTELMQPNFELLLGPICLPLVDRFIQLLKVAQASSSQYFRESILNDIRKARNLYTGKELAAELARIRQRVDNIEVLTADIVINLLLSYRDIQDYDSIVKLVETLEKLPTFDLASHHHVKFHYAFALNRRNLPGDRAKALDIMIPMVQSEGQVASDMYCLVGRIYKDMFLDSNFTDTESRDHGASWFKKAFESEPTLQSGINYAVLLLAAGHQFESSFELRKVGVKLSSLLGKKGNLEKLQSYWEVGFFLGASVLANDHMRVIQASEKLFKLKTPAWYLKSIVETILIYKHFVKLTTEQPVAKQELVDFWMDFLVEATKTDVTVVRFPVLILEPTKIYQPSYLSINNEVEEKTISIWHVLPDDKKGIHEWNFSASSVRGVSISKFEERCCFLYVLHNSDDFQIYFCTELHCKKFFEMVNTITEEKGRSTEEGDCESDLLEYDYEYDENGDRVVLGKGTYGIVYAGRDLSNQVRIAIKEIPERDSRYSQPLHEEIALHKHLKHKNIVQYLGSFSENGFIKIFMEQVPGGSLSALLRSKWGPLKDNEQTIGFYTKQILEGLKYLHDNQIVHRDIKGDNVLINTYSGVLKISDFGTSKRLAGINPCTETFTGTLQYMAPEIIDKGPRGYGKAADIWSLGCTIIEMATGKPPFYELGEPQAAMFKVGMFKVHPEIPESMSAEAKAFILKCFEPDPDKRACANDLLVDEFLKVSSKKKKTQPKLSALSAGSNEYLRSISLPVPVLVEDTSSSSEYGSVSPDTELKVDPFSFKTRAKSCGERDVKGIRTLFLGIPDENFEDHSAPPSPEEKDSGFFMLRKDSERRATLHRILTEDQDKIVRNLMESLAQGAEEPKLKWEHITTLIASLREFVRSTDRKIIATTLSKLKLELDFDSHGISQVQVVLFGFQDAVNKVLRNHNIKPHWMFALDSIIRKAVQTAITILVPELRPHFSLASESDTADQEDLDVEDDHEEQPSNQTVRRPQAVIEDAVATSGVSTLSSTVSHDSQSAHRSLNVQLGRMKIETNRLLEELVRKEKELQALLHRAIEEKDQEIKHLKLKSQPIEIPELPVFHLNSSGTNTEDSELTDWLRVNGADEDTISRFLAEDYTLLDVLYYVTRDDLKCLRLRGGMLCTLWKAIIDFRNKQT
  phosphorylation of GST-MKK6 (K82A) by immunoprecipitated ASK1 (immunocomplex kinase assay): The presence of the HIS-CIA recombinant protein, however, lowered the kinase activity of ASK1, which had been activated by the UV irradiation, resulting in a significant decrease in the phosphorylation of GST-MKK6
